Test [1] concerns the target T1, human Sortilin (SORT1), full-length untagged, expressed on cells (human, UniProt Q99523 78-831).
T1 sequence: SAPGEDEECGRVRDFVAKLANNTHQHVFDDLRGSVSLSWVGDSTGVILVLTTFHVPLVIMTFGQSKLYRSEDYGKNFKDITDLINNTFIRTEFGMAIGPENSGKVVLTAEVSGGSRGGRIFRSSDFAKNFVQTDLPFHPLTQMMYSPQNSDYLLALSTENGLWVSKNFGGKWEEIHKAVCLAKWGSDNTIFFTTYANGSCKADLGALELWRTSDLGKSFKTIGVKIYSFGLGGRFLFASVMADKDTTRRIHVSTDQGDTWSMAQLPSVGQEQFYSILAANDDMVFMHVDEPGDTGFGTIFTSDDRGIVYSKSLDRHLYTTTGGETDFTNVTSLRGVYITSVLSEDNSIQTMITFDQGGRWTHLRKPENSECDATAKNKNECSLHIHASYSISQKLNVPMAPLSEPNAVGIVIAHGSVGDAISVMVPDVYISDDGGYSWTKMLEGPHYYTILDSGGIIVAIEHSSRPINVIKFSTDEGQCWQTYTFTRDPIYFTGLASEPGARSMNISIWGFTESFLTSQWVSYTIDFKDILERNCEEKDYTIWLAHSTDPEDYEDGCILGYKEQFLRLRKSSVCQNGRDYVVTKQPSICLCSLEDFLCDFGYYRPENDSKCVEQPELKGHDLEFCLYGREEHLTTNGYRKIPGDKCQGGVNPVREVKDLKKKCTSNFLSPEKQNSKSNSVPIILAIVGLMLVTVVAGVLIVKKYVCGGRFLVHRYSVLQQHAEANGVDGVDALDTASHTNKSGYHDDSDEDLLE
Nature of the test: cell-based or functional assay.

In test [2] the target is T1, human Sortilin (SORT1), full-length …. The test is described as follows: cell-based or functional assay. This is another data set of the same source.
Test [3] shares this target. The test is described as follows: FACS on HEK293T cells expressing human SORT1, huIgG1; average of two experiments. As for the experimental part:
(§1) For the binding assay, stable HEK293T cells expressing human SORT1 were harvested by trypsinization, washed in PBS, counted and plated on 96-well u-bottom plates at 1×10⁵ cells/well. The plates were spun at 1,400 rpm for 3 minutes and primary anti-SORT1 or control antibodies were added in FACS buffer (PBS+2 FBS) and incubated on ice for one hour. Cells were subsequently centrifuged as before and washed thrice with FACS buffer. Cells were then incubated with anti-human APC conjugated secondary antibody (BD Biosciences) in FACS buffer for 30 minutes on ice. Cells were again washed three times with FACS buffer and analyzed on a BD FACS Canto or an Intellicyt Flow Cytometer. Binding was measured as median fluorescent intensity (MFI) in the […] channel of the GFP positive cell population.
(§2) All antibodies were tested on the huIgG1 backbone.

The target is the same in test [4]. Nature of the test: cell-based or functional assay. The source holds these as a separate data set.
Test [5] has the same target. Nature of the test: FACS on HEK293T cells expressing human SORT1, huIgG1. The protocol: as §1, §2
Test [6] has the same target. The test is described as follows: cell-based or functional assay. This is another data set of the same source.
The target in test [7] is T2, histidine-tagged human SORT1 (R&D Systems) (human, UniProt Q99523 78-755).
T2 construct: Bought recombinant protein; also called His-tagged human SORT1; not shown: histidine tag
T2 sequence: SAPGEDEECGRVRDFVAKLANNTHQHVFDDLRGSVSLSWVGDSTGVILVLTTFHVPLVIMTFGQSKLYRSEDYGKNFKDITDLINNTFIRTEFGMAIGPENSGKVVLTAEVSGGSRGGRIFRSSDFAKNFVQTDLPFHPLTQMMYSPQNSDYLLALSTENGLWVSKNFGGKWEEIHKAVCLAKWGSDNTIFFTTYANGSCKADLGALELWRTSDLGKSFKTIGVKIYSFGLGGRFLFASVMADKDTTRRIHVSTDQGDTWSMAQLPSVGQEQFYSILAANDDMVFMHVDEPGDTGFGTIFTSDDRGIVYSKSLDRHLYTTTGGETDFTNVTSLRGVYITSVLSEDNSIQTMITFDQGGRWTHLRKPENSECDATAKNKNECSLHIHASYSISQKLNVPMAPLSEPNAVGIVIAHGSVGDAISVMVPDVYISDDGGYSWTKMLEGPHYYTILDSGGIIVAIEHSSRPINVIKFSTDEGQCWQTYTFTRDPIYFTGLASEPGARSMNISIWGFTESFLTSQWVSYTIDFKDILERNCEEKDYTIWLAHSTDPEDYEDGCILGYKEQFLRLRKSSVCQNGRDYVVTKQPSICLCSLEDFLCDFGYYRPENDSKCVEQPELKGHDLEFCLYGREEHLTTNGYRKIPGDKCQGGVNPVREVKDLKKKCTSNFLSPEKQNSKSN
The test is described as follows: BLI, complete kinetic analysis with multiple concentrations of SORT1. In general terms: In BLI a coated tip is dipped into the sample, and binding shifts an interference pattern.

The target of test [8] is T2, histidine-tagged human SORT1 (R&D …). The test is described as follows: BLI (Octet RED96), antibody captured on anti-human IgG Fc sensor, 20 nM His-tagged human SORT1, 1:1 fit. As for the experimental part: The G1m3 or G1m(f) allotype with L234A/L235A/P331S (“LALAPS” motif) mutations was used as a background (Jefferis R and Lefranc M-P, Mabs, 2009 July-August; 1(4): 332-338). […] Bio-layer interferometry (BLI) data was collected at a rate of 5 Hz at 25° C. on a Pall ForteBio Octet RED96 instrument. Data analysis was performed using ForteBio Data Analysis Software, version 9.0. Standard kinetic buffer (PBS, 0.1 BSA, 0.02 Tween-20, pH 7.2) was used for the assay and for preparing reagents. For all assays, sensor tips were equilibrated in buffer prior to analysis.
Twenty nM histidine-tagged human SORT1 (R&D Systems, Minneapolis, Minn.) was then bound to the captured anti-SORT1 surface (200 s association time, 1200 s dissociation time). […] Full, local fitting using a 1:1 interaction model was applied to extract association and dissociation rate constants (kₐ and kd, respectively) for each N33 mutant. Affinity constants (KD) were calculated from the ratio […]. Different amino acid substitutions were made at N33 and tested for binding to SORT1 in an off-rate screen (under non-stress conditions) as shown in Table 9.

Test [9] has as its target T1, human Sortilin (SORT1), full-length …. The test is described as follows: FACS on HEK293T cells expressing human SORT1. As for the experimental part: as §1

Consider 7 molecules from patent US20200024348A1 (Alector, published 2020).

A word on the Kd: it is the free concentration of one partner at which half of the binding sites on the other are occupied at equilibrium, for simple one-to-one binding. Higher therefore signals lower affinity.

B1: S-60-3 (antibody, IgG1, V domains shown)
VH: QVQLQESGPGLVKPSETLSLTCAVSGYSISSGYYWGWIRQPPGKGLEWIGTIYHSGSTYYNPSLKSRVTISVDTSKNQFSLKLSSVTAADTAVYYCARQGSIKQGYYGMDVWGQGTTVTVSS
VL: DIVMTQSPLSLPVTPGEPASISCRSSQSLLRSNGYNYLDWYLQKPGQPPQLLIYLGSNRVSGVPDRFSGSGSGTDFTLKISRVEAEDVGVYYCMQQQETPLTFGGGTKVEIK
notes: Tested on the huIgG1 (WT) backbone
For the molecule B1, in [1], the “DR EC50 (M): down-regulation of cell surface SORT1, U251 cells, FACS” value was 2.69e-10 M and the “DR at 0.6 nM antibody (IgG): percent SORT1 downregulation, U251 cells” value came to 43%. Besides, in test [2], the “DR at 1.25 nM antibody (IgG): percent SORT1 downregulation, U251 cells” value came to 61.5%. The molecule also gave a Kd in test [3] of 0.856 nM.

B2: S-60-14 (antibody, IgG1, V domains shown)
VH: QVQLQESGPGLVKPSETLSLTCAVSGYSISSGYYWGWIRQPPGKGLEWIGTIYHSGSTYYNPSLESRVTISVDTSKNQFSLKLSSVTAADTAVYYCARQGSIQQGYYGMDVWGQGTTVTVSS
VL: not shown
notes: as for B1
As to B2, in test [4], the “DR at 0.63 nM antibody (IgG): percent SORT1 downregulation, U251 cells” value came out at 80.5%. Besides, the Kd in [5] was 1.05 nM.

B3: S-60-15.1 [N33T] LALAPS (antibody, human IgG1, kappa, L234A L235A, V domains shown)
VH: QVQLQESGPGLVKPSETLSLTCAVSGYSISSGYYWGWIRQPPGKGLEWIGTIYHSGSTYYNPSLKSRVTISVDTSKNQFSLKLSSVTAADTAVYYCARQGSIKQGYYGMDVWGQGTTVTVSS
VL: DIVMTQSPLSLPVTPGEPASISCRSSQSLLRSTGYNYLDWYLQKPGQSPQLLIYLGSNRASGVPDRFSGSGSGTDFTLKISRAEAEDVGVYYCMQQQEAPLTFGGGTKVEIKR
notes: huIgG1 LALAPS
Consider B3, for which, in test [6], the “% DR at 150 nM antibody (IgG), U251 cells” value (“% DR at 150 nM antibody” for short) came to 70.3% and the “EC50 (pM): downregulation (DR) of cell surface SORT1, U251 cells, FACS” value was determined as 104 pM. In test [7], this molecule returned a Kd of 0.26 nM.

B4: S-60-15.5 [N33D] (antibody, V domains shown)
VH: QVQLQESGPGLVKPSETLSLTCAVSGYSISSGYYWGWIRQPPGKGLEWIGTIYHSGSTYYNPSLKSRVTISVDTSKNQFSLKLSSVTAADTAVYYCARQGSIKQGYYGMDVWGQGTTVTVSS
VL: DIVMTQSPLSLPVTPGEPASISCRSSQSLLRSDGYNYLDWYLQKPGQSPQLLIYLGSNRASGVPDRFSGSGSGTDFTLKISRAEAEDVGVYYCMQQQEAPLTFGGGTKVEIKR
notes: also called completely deamidated version of S-60-15
B4: the “% DR at 150 nM antibody” value in test [6] turned out to be 3.4%. The same molecule yielded a Kd in test [8] of 1 nM.

B5: S-60-13 (antibody, IgG1, V domains shown)
VH: QVQLQESGPGLVKPSETLSLTCAVSGYSISSGYYWGWIRQPPGKGLEWIGTIYHSGSTYYNPSLESRVTISVDTSKNQFSLKLSSVTAADTAVYYCARQGSIQQGYYGMDVWGQGTTVTVSS
VL: not shown
notes: as for B1
Take B5: in test [4], the “DR at 0.63 nM antibody (IgG): percent SORT1 downregulation, U251 cells” value was 82.3%. This molecule also showed a Kd in test [5] of 0.75 nM.

B6: S-60-24 (antibody, IgG1, V domains shown)
VH: QVQLQESGPGLVKPSETLSLTCAVSGYSISSGYYWGWIRQPPGKGLEWIGTIYHSGSTYYNPSLKSRVTISVDTSKNQFSLKLSSVTAADTAVYYCARQGSIKQGYYGMDVWGQGTTVTVSS
VL: DIVMTQSPLSLPVTPGESASISCRSSQGLLRSNGYNYLDWYLQKPGQSPQLLIYLGSNRASGVPDRFSGSGSGTDFTLKISRVEAEDVGVYYCMQQQEAPLTFGGGTKVEIK
notes: as for B1
With B6, in [2], the “DR at 1.25 nM antibody (IgG): percent SORT1 downregulation, U251 cells” value stood at 65.2%. Also, the “DR at 0.63 nM antibody (IgG): percent SORT1 downregulation, U251 cells” value in [4] came to 81.5%. This molecule gave a dissociation constant (Kd) in test [3] of 0.755 nM.

B7: S-60-15.1 [N33T] as huIgG1 (antibody, V domains shown)
VH: QVQLQESGPGLVKPSETLSLTCAVSGYSISSGYYWGWIRQPPGKGLEWIGTIYHSGSTYYNPSLKSRVTISVDTSKNQFSLKLSSVTAADTAVYYCARQGSIKQGYYGMDVWGQGTTVTVSS
VL: DIVMTQSPLSLPVTPGEPASISCRSSQSLLRSTGYNYLDWYLQKPGQSPQLLIYLGSNRASGVPDRFSGSGSGTDFTLKISRAEAEDVGVYYCMQQQEAPLTFGGGTKVEIK
notes: huIgG1 without the LALAPS mutations
Consider B7, for which the “% DR at 150 nM antibody” value in [6] was 69.3%. Also, in [6], the “EC50 (pM): downregulation (DR) of cell surface SORT1, U251 cells, FACS” value came out at 72.6 pM. For the same molecule, the dissociation constant Kd in [9] amounted to 0.365 nM; in [7], 0.298 nM.
